These results are taken from patent publication US20230329294A1 (CLARA FOODS, published 2023).

The assay concerns the target bovine trypsin (bovine, UniProt P00760 24-246). In words: cell-based or functional assay.

bovine trypsin, sequence (P00760 24-246): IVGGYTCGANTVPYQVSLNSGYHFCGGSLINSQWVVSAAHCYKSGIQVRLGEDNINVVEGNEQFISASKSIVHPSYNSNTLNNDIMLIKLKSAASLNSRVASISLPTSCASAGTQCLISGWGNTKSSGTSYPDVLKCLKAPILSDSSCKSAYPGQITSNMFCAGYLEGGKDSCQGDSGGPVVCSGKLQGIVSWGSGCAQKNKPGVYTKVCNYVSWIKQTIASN

B1: native chicken ovomucoid (other)
chain: AEVDCSRFPNATDKEGKDVLVCNKDLRPICGTDGVTYTNDCLLCAYSIEFGTNISKEHDGECKETVPMNCSSYANTTSEDGKVMVLCNRAFNPVCGTDGVTYDNECLLCAHKVEQGASVDKRHDGGCRKELAAVSVDCSEYPKPDCTAEDRPLCGSDNKTYGNKCNFCNAVVESNGTLTLSHFGKC
modifications: complex branched N-linked glycosylation (that includes mannose)
Take B1: the Trypsin inhibition activity is 13700 TIU/g.
